Assay results: paper PMC6823245, “Positive Modulation of Angiotensin II Type 1 Receptor–Mediated Signaling by LVV–Hemorphin-7” (Frontiers in Pharmacology, 2019)

Experiments:
[1] = target: T1, AT1R (AT1R-Rluc/Venus-Gαq coupling) (Homo sapiens, UniProt P30556); test: BRET between AT1R-Rluc and Venus-Gαq (dose-response / 30 min endpoint) in HEK293 cells; type: cell-based; set-up: expressed in transfected cells; host or cells: HEK293, transient transfection (Lipofectamine 2000)
T1 sequence (P30556 1-359): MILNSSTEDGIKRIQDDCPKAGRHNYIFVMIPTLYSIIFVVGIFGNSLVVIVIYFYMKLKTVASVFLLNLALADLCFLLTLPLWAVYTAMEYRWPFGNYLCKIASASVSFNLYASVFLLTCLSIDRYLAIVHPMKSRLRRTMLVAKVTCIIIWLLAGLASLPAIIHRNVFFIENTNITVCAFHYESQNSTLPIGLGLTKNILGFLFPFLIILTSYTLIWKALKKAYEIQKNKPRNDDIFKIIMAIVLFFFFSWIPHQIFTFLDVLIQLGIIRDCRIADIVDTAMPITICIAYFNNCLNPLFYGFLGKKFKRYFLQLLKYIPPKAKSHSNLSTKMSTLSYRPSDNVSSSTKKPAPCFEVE
Protocol: All assays were carried out 48 h posttransfection.
BRET technology was used for dose–response analysis as previously described ([Ayoub et al., 2015]; [Ayoub, 2016]; [Ayoub et al., 2016]). […] Following treatment, 10 µl of coelenterazine h (Promega) in PBS was added to a final concentration of 5 µM, and BRET measurements were carried out using the Tristar 2 multilabel plate reader (Berthold, Germany) allowing sequential measurements of light emission at 480 and 540 nm.

AT1R (AT1R-WT) = target: T2, AT1R (AT1R-WT) (Homo sapiens, UniProt P30556); conditions: 10 µM irbesartan 15 min, then 5 nM AngII ± 10 µM LVV–hemorphin-7, 30 min, 37°C (Figure 5D)
T2 sequence (P30556 1-359): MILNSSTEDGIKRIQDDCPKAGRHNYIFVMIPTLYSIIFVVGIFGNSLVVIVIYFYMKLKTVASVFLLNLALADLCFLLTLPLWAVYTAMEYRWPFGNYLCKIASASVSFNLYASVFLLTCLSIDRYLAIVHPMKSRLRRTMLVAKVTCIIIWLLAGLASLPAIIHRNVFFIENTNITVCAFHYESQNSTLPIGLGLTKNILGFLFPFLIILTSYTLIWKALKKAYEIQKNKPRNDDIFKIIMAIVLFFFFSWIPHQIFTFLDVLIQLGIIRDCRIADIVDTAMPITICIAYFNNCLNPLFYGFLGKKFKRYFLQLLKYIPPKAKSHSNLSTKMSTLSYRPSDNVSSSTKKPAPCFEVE
Protocol: (§1) HEK293 cells were maintained at 37°C, 5% CO2 in complete medium (Dulbecco modified Eagle medium (DMEM) containing 0.3 mg/ml glutamine, 100 IU/ml penicillin, and 100 µg/ml streptomycin) supplemented with 10% fetal calf serum (GIBCO BRL, Carlsbad, CA, USA). Transient transfections for BRET were carried out in 96-well plates and IP1 and ERK1/2 assays in six-well plates using Lipofectamine 2000 (Invitrogen). […] The plasmid solution was then mixed with 25 µl of serum-free DMEM containing 0.5 µl of Lipofectamine 2000 and incubated for 20 min at room temperature. Cells (10^5 in 150 µl/well) resuspended in DMEM supplemented with 10% fetal calf serum (FCS) were then incubated with the final DNA-Lipofectamine 2000 mix (50 µl/well) and seeded in 96-well plates. All assays were carried out 48 h posttransfection.
Measurement of IP1 accumulation was performed in HEK293 cells expressing either AT1R-Rluc with Venus-Gαq like for BRET assays or untagged AT1R (AT1R-WT) alone using the IP-One Tb kit (Cisbio Bioassays, France) according to manufacturer’s instructions. […] The cells were then lysed by adding the supplied assay reagents, and the assay was incubated for 1 h at room temperature. Fluorescence emission was measured at 620 and 665 nm, 50 µs after excitation at 340 nm using the Tristar 2 multilabel plate reader (Berthold, Germany). […]

AT1R = conditions: ref Li et al., 2018, cited from earlier work
Source text: Our seminal finding is of significant importance to hemorphin and GPCR pharmacology and their implication in human physiology. Indeed, in addition to hemorphin’s effect on opioid receptors ([Brantl et al., 1986]; [Davis et al., 1989]; [Liebmann et al., 1989]; [Glämsta et al., 1992]; [Yukhananov et al., 1994]; [Nyberg et al., 1997]; [Szikra et al., 2001]; [Cheng et al., 2012]), we report yet another GPCR member (AT1R) that is a target of hemorphins with the plausible implication in the physiology and pathophysiology of vascular and renal systems. The action of LVV–hemorphin-7 on AT1R is consist ...

[2] = among hemorphin peptides; ref not attached to the sentence (next sentence: Karelin et al., 1994; Moeller et al., 1997); cited from earlier work
Source text: Hemorphins are endogenous hemoglobin-derived peptides that were initially reported to have opiate-like activity. They are normally released from hemoglobin beta-chain during physiological or pathophysiological conditions. These peptides are 4 to 10 amino acids long and share a common Tyr-Pro-Trp-Thr tetrapeptide core (YPWT or hemorphin-4) ([Liebmann et al., 1989]; [Zhao et al., 1995]; [Ivanov et al., 1997]; [Nyberg et al., 1997]). A number of different hemorphin peptides have been identified including hemorphin-4, hemorphin-7, and LVV–hemorphin-4, -6, and -7 ([Brantl et al., 1986]; [Piot et al ...

[3] = target: T1, AT1R (AT1R-Rluc/Venus-Gαq coupling); test: Real-time BRET kinetics, AT1R-Rluc and Venus-Gαq in HEK293 cells; conditions: 10 µM alone, sequential protocol, after 35 min (Figure 3C)
Protocol: as §1
For the real-time BRET kinetics, different protocols were used. Cells were first washed with 50 µl/well of PBS and resuspended in 40 µl/well of PBS containing coelenterazine h (5 µM), and BRET signals were measured in real time for ∼5 min to determine the baseline.
All kinetic and the sigmoidal dose–response curves were fitted to appropriate nonlinear regression equations using GraphPad Prism software (San Diego, CA, USA). Statistical analyses were performed with two-way ANOVA and Tukey multiple-comparisons test to determine statistical significance between the different conditions.

[4] = target: AT1R-RlucII (angiotensin II type 1 receptor fused to Renilla luciferase) (human) (UniProt P30556)
[5] = target: untagged AT1R (AT1R-WT) (human) (UniProt P30556)
[6] = target: AT1R-RlucII (angiotensin II type 1 receptor fused to Renilla luciferase) (human) (UniProt P30556); remark: listed apart in the source
[7] = target: AT1R-RlucII (angiotensin II type 1 receptor fused to Renilla luciferase) (human) (UniProt P30556); remark: listed apart in the source
[8] = target: AT1R-RlucII (angiotensin II type 1 receptor fused to Renilla luciferase) (human) (UniProt P30556); remark: listed apart in the source

CCCCC1=NC2(CCCC2)C(=O)N1Cc1ccc(-c2ccccc2-c2nnn[nH]2)cc1 [irbesartan]
inhibition of AngII-mediated BRET signals and of their potentiation by LVV–hemorphin-7 ([1]; 10 µM irbesartan 15 min, then 10 nM AngII ± 10 µM LVV–hemorphin-7, 30 min, 37°C (Figure 4A), n = 3): full inhibition
inhibition of AngII-mediated IP1 production and its potentiation by LVV–hemorphin-7 (AT1R (AT1R-WT)): completely abolished

NC(CCS)C(=O)O (centres unmarked) [homocysteine]
binding site on AT1R (AT1R; binding experiments): binding of homocysteine to the orthosteric binding site of AT1R
positive allosteric modulation of AT1R (AT1R): PAM of AT1R

CC(C)C[C@H](N)C(=O)N[C@H](C(=O)N[C@H](C(=O)N[C@@H](Cc1ccc(O)cc1)C(=O)N1CCC[C@H]1C(=O)N[C@@H](Cc1c[nH]c2ccccc12)C(=O)N[C@H](C(=O)N[C@@H](CCC(N)=O)C(=O)N[C@@H](CCCNC(=N)N)C(=O)N[C@@H](Cc1ccccc1)C(=O)O)[C@@H](C)O)C(C)C)C(C)C [LVV–hemorphin-7]
EC50 of potentiation of AngII-mediated BRET (in words) ([1]; 15 min preincubation, then 10 nM AngII 20 min (Figure 2E)): micromolar range
stability [2]: most stable form
BRET increase, LVV–hemorphin-7 alone [3]: ~10%

B1: LVV–hemorphin-7 (peptide)
peptide: LVVYPWTQRF
BRET increase in sequential real-time kinetics (AT1R-Rluc with Venus-Gαq or yPET–β-arrestin 2), 10 µM LVV–hemorphin-7 alone, after 35 min [4]: 10%
ERK1/2 phosphorylation (folds over untreated cells), cells expressing AT1R-WT, 10 µM LVV–hemorphin-7 alone, 5 min [5]: 6.74 folds
ERK1/2 phosphorylation (folds over untreated cells), cells expressing AT1R-WT, cotreatment with AngII and LVV–hemorphin-7 [5]: 12.8 folds
E max (%) of AngII with LVV–hemorphin-7, BRET dose–response, AT1R-Rluc + Venus-Gαq; AngII without LVV–hemorphin-7 taken as 100% [6]: 109%
E max (%) of AngII with LVV–hemorphin-7, BRET dose–response, AT1R-Rluc + yPET–β-arrestin 2; AngII without LVV–hemorphin-7 taken as 100% [6]: 104%
E max (%) of AngII with LVV–hemorphin-7, BRET kinetics 1 (Figures 3A, B), AT1R-Rluc + Venus-Gαq; 10 nM AngII alone taken as 100% [6]: 263%
E max (%) of AngII with LVV–hemorphin-7, BRET kinetics 1 (Figures 3A, B), AT1R-Rluc + yPET–β-arrestin 2; 10 nM AngII alone taken as 100% [6]: 240%
E max (%) of AngII with LVV–hemorphin-7, BRET kinetics 2 (Figures 3C, D), AT1R-Rluc + Venus-Gαq; 10 nM AngII alone taken as 100% [6]: 171%
E max (%) of AngII with LVV–hemorphin-7, BRET kinetics 2 (Figures 3C, D), AT1R-Rluc + yPET–β-arrestin 2; 10 nM AngII alone taken as 100% [6]: 200%
ERK1/2 phosphorylation (folds over untreated cells), cells coexpressing AT1R-Rluc and Venus-Gαq, cotreatment with 10 nM AngII and 10 µM LVV–hemorphin-7 for 5 min [7]: 6.71 folds
ERK1/2 phosphorylation (folds over untreated cells), cells coexpressing AT1R-Rluc and Venus-Gαq, pretreatment with LVV–hemorphin-7 for 15 min followed by AngII for 5 min [7]: 6.7 folds
Log EC50 of LVV–hemorphin-7 for potentiation of the BRET increase between AT1R-Rluc and Venus-Gαq induced by 10 nM AngII (log (concentration unit not given)) [8]: -5.41
Log EC50 of LVV–hemorphin-7 for potentiation of the BRET increase between AT1R-Rluc and yPET–β-arrestin 2 induced by 10 nM AngII (log (concentration unit not given)) [8]: -5.48
